Source: the supplement of paper PMC7877785
± gives the uncertainty stated by the source.

Experiment: self-splicing fitness, log relative to wild type (ln ratio); higher = more splicing; Tetrahymena group I intron in knt gene, E. coli kanamycin selection, DiMSum; sequences stand for … in CUCUCU…GGAGGGAAAAGUUAUCAGGCAUGCACCUGGUAGCUAGUCUUUAAACCAAUAGAUUGCAUCGGUUUAAAAGGCAAGACCGUCAAAUUGCGGGAAAGGGGUCAACAGCCGUUCAGUACCAAGUCUCAGGGGAAACUUUGAGAUGGCCUUGCAAAGGGUAUGGUAAUAAGCUGACGGACAUGGUCCUAACCACGCAGCCAAGUCCUAAGUCAACAGAUCUUCUGUUGAUAUGGAUGCAGUUCACAGACUAAAUGUCGGUCGGGGAAGAUGUAUUCUUCUCAUAAGAUAUAGUCGGACCUCUCCUUAAUGGGAGCUAGCGGAUGAAGUGAUGCAACACUGGAGCCGCUGGGAACUAAUUUGUAUGCGAAAGUAUAUUGAUUAGUUUUGGAGUACUCGUGGUCG
Summary of the method: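 The eight P1ex-region nucleotides of an intron in the knt kanamycin-resistance gene on pET-22b(+) were all randomised and the library put into E. coli BL21(DE3). Six replicate transformations were grown overnight at 37°C or 30°C on LB agar with or without 25 μg/mL kanamycin, together with 100 μg/mL carbenicillin, 50 μM IPTG and 0.2% rhamnose. Colonies were pooled and amplicon-sequenced on an Illumina HiSeq 2500. Fitness from DiMSum is the error-weighted combination of wild-type-normalised replicate fold changes, kanamycin over none.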

Sequence | self-splicing fitness (ln) (30 °C) | self-splicing fitness (ln) (37 °C)
CACUAGCAAUAUUACGGAGU | -3.63 ± 0.18 | -2.14 ± 0.16
CACUAGCAAUAUUACGGUAA | -2.52 ± 0.16 | -0.923 ± 0.11
CACUAGCAAUAUUACGUACC | -3.22 ± 0.18 | -2.55 ± 0.24
CACUAGCAAUAUUACGUAGU | -3.45 ± 0.14 | -2.92 ± 0.18
CACUAGCAAUAUUACGUAUU | -3.28 ± 0.17 | -2.11 ± 0.15
CACUAGCAAUAUUACGUCGA | -1.58 ± 0.13 | -1.48 ± 0.1
CAGAAGCAAUAUUACGAAAU | -3.92 ± 0.42 | -1.33 ± 0.38
CAGAAGCAAUAUUACGAACA | -1.81 ± 0.18 | -0.783 ± 0.17
CAGAAGCAAUAUUACGAAGA | -3.8 ± 0.27 | -2.85 ± 0.25
CAGAAGCAAUAUUACGAAUA | -2.43 ± 0.27 | -1.84 ± 0.24
CAGAAGCAAUAUUACGAGAG | -2.78 ± 0.17 | -1.98 ± 0.19
CAGAAGCAAUAUUACGAGCA |  | -1.3 ± 0.38
CAGAAGCAAUAUUACGAUAU | -3.56 ± 0.2 | -2.53 ± 0.15
CAGAAGCAAUAUUACGAUUG | -1.92 ± 0.11 | -1.47 ± 0.12
CAGAAGCAAUAUUACGCACA | -1.56 ± 0.077 | -0.438 ± 0.087
CAGAAGCAAUAUUACGCACC | -3.18 ± 0.41 | -2.1 ± 0.46
CAGAAGCAAUAUUACGCCCA | -1.97 ± 0.15 | -0.986 ± 0.16
CAGAAGCAAUAUUACGCGUA | -2.63 ± 0.27 | -1.69 ± 0.15
CAGAAGCAAUAUUACGCUAC | -0.828 ± 0.41 | 
CAGAAGCAAUAUUACGCUAG | -2.82 ± 0.18 | -1.73 ± 0.2
CAGAAGCAAUAUUACGCUGG | -2.84 ± 0.15 | -2.21 ± 0.15
CAGAAGCAAUAUUACGCUUG | -4.25 ± 0.16 | -2.99 ± 0.14
CAGAAGCAAUAUUACGGACC | -3.56 ± 0.48 | -2.5 ± 0.46
CAGAAGCAAUAUUACGGCAU | -3.35 ± 0.19 | -1.95 ± 0.15
CAGAAGCAAUAUUACGGGCA | -2.53 ± 0.16 | -1.76 ± 0.18

Sequence | self-splicing fitness (ln) (30 °C) | self-splicing fitness (ln) (37 °C)
CAGAAGCAAUAUUACGGGUC | -3.4 ± 0.29 | -2.55 ± 0.2
CAGAAGCAAUAUUACGGGUU | -3.12 ± 0.24 | -3.23 ± 0.21
CAGAAGCAAUAUUACGUACU | -1.83 ± 0.13 | -1.22 ± 0.12
CAGAAGCAAUAUUACGUAGG | -0.872 ± 0.06 | 0.297 ± 0.1
CAGCAGCAAUAUUACGAAGG | -1.16 ± 0.11 | -1.05 ± 0.11
CAGCAGCAAUAUUACGACAA | -3.11 ± 0.39 | -1.67 ± 0.23
CAGCAGCAAUAUUACGACAG | -0.416 ± 0.073 | 0.533 ± 0.1
CAGCAGCAAUAUUACGACUA | -0.351 ± 0.068 | 0.43 ± 0.081
CAGCAGCAAUAUUACGAGUC | -4.41 ± 0.29 | -2.24 ± 0.14
CAGCAGCAAUAUUACGCCAG | -0.865 ± 0.089 | 0.0215 ± 0.12
CAGCAGCAAUAUUACGCGGA | -2.58 ± 0.14 | -1.14 ± 0.11
CAGCAGCAAUAUUACGGCGG | -1.93 ± 0.093 | -1.5 ± 0.16
CAGCAGCAAUAUUACGUCGC | -3.31 ± 0.18 | -2.21 ± 0.21
CAGCAGCAAUAUUACGUCUG | -3.11 ± 0.14 | -2.85 ± 0.22
CAGCAGCAAUAUUACGUGUU | -4.61 ± 0.22 | -2.5 ± 0.13
CAGCAGCAAUAUUACGUUUA | -2.11 ± 0.12 | -2.02 ± 0.12
CAGGAGCAAUAUUACGACAA |  | -1.73 ± 0.41
CAGGAGCAAUAUUACGAGUG | -2.51 ± 0.2 | -1.95 ± 0.17
CAGGAGCAAUAUUACGAUCU |  | -2.45 ± 0.45
CAGGAGCAAUAUUACGAUUG | -3.77 ± 0.28 | -2.46 ± 0.23
CAGGAGCAAUAUUACGCAUA |  | -1.73 ± 0.33
CAGGAGCAAUAUUACGGAGG | -2.02 ± 0.095 | -1.21 ± 0.12
CAGGAGCAAUAUUACGGGCU | -4.13 ± 0.39 | -2.17 ± 0.34
CAGGAGCAAUAUUACGGGUU | -4.36 ± 0.25 | -2.99 ± 0.19
CAGGAGCAAUAUUACGUAAU | -3.99 ± 0.47 | -2.78 ± 0.44

Sequence | self-splicing fitness (ln) (30 °C) | self-splicing fitness (ln) (37 °C)
CAGGAGCAAUAUUACGUAUA | -4.26 ± 0.34 | -1.62 ± 0.21
CAGGAGCAAUAUUACGUCCG | 0.726 ± 0.21 | 0.304 ± 0.29
CAGGAGCAAUAUUACGUUGG | -2.44 ± 0.14 | -0.863 ± 0.14
CAGUAGCAAUAUUACGAACA | -3.3 ± 0.48 | -2.86 ± 0.41
CAGUAGCAAUAUUACGAAGA |  | -2.1 ± 0.41
CAGUAGCAAUAUUACGAAGG | -1.25 ± 0.12 | -1.8 ± 0.14
CAGUAGCAAUAUUACGAAUG | -1.36 ± 0.1 | -0.492 ± 0.11
CAGUAGCAAUAUUACGACGC | -3.07 ± 0.38 | -0.25 ± 0.25
CAGUAGCAAUAUUACGACGU | -1.15 ± 0.14 | -0.0577 ± 0.18
CAGUAGCAAUAUUACGACUC | -0.076 ± 0.18 | 0.539 ± 0.28
CAGUAGCAAUAUUACGAGAG | -3.95 ± 0.24 | -2.76 ± 0.19
CAGUAGCAAUAUUACGAGCU | -3.07 ± 0.28 | 0.322 ± 0.19
CAGUAGCAAUAUUACGAUGG | -0.609 ± 0.077 | -0.119 ± 0.11
CAGUAGCAAUAUUACGCAGG | -1.59 ± 0.096 | -0.318 ± 0.11
CAGUAGCAAUAUUACGCGUA | -2.89 ± 0.27 | -1.64 ± 0.19
CAGUAGCAAUAUUACGGAUA | -1.58 ± 0.32 | -2.79 ± 0.38
CAGUAGCAAUAUUACGGGUC | -3.88 ± 0.37 | -1.32 ± 0.24
CAGUAGCAAUAUUACGGGUU | -2.49 ± 0.18 | -1.82 ± 0.2
CAGUAGCAAUAUUACGGUAC | -5 ± 0.45 | -3 ± 0.27
CAGUAGCAAUAUUACGUCAA | -2.64 ± 0.14 | -2.59 ± 0.26
CAGUAGCAAUAUUACGUCGU | -2.6 ± 0.17 | -2.44 ± 0.17
CAGUAGCAAUAUUACGUGAU | -4.22 ± 0.34 | -1.2 ± 0.15
CAGUAGCAAUAUUACGUGCG | -0.0402 ± 0.068 | 0.239 ± 0.088
CAGUAGCAAUAUUACGUGCU | -2.95 ± 0.19 | -1.84 ± 0.3
CAGUAGCAAUAUUACGUGGC | -2.97 ± 0.28 | -2.36 ± 0.29

Sequence | self-splicing fitness (ln) (30 °C) | self-splicing fitness (ln) (37 °C)
CAGUAGCAAUAUUACGUUAA | -2.74 ± 0.19 | -3.5 ± 0.23
CAGUAGCAAUAUUACGUUUA | -3.19 ± 0.23 | -3.02 ± 0.25
CAUAAGCAAUAUUACGAAAU | -3.7 ± 0.2 | -2.68 ± 0.22
CAUAAGCAAUAUUACGAAUA | -1.84 ± 0.24 | -2.9 ± 0.43
CAUAAGCAAUAUUACGAAUG | -3.79 ± 0.23 | -2.32 ± 0.19
CAUAAGCAAUAUUACGAGAA |  | -2.27 ± 0.3
CAUAAGCAAUAUUACGAUUA | -1.64 ± 0.14 | -1.4 ± 0.14
CAUAAGCAAUAUUACGCAAA | -2.93 ± 0.44 | -2.46 ± 0.41
CAUAAGCAAUAUUACGCAUC |  | -3.39 ± 0.43
CAUAAGCAAUAUUACGCAUG | -1.55 ± 0.12 | -2.27 ± 0.23
CAUAAGCAAUAUUACGCCAG | -1.42 ± 0.14 | -0.932 ± 0.19
CAUAAGCAAUAUUACGCCGG | -0.252 ± 0.13 | -0.546 ± 0.2
CAUAAGCAAUAUUACGCGAG | -1.99 ± 0.097 | -1.39 ± 0.085
CAUAAGCAAUAUUACGCGCG | -0.536 ± 0.14 | 0.0409 ± 0.15
CAUAAGCAAUAUUACGCGUU | -3.3 ± 0.15 | -1.55 ± 0.13
CAUAAGCAAUAUUACGCUAG | -3.34 ± 0.16 | -2.4 ± 0.15
CAUAAGCAAUAUUACGCUGU | -3.79 ± 0.27 | -1.05 ± 0.15
CAUAAGCAAUAUUACGGAGA |  | -3.12 ± 0.38
CAUAAGCAAUAUUACGGAUC |  | -1.38 ± 0.23
CAUAAGCAAUAUUACGGCAU | -4.06 ± 0.31 | -1.15 ± 0.2
CAUAAGCAAUAUUACGGCGG | 0.324 ± 0.087 | -0.0169 ± 0.12
CAUAAGCAAUAUUACGGCUA | -1.56 ± 0.13 | -1.51 ± 0.12
CAUAAGCAAUAUUACGGCUC | -2.88 ± 0.44 | -1.88 ± 0.43
